Data reported in patent publication US20190119347A1 (HANMI PHARM, published 2019).
Bridge positions count the residues as written; N and C are the ends. Square brackets hold non-standard residues; d marks the D form. Ends that are not written are not given here. Aib = CC(C)(N)C(=O)O

Target: human glucagon receptor (human, UniProt P47871 26-477)
Test: cell-based or functional assay

Chain of human glucagon receptor (P47871 26-477): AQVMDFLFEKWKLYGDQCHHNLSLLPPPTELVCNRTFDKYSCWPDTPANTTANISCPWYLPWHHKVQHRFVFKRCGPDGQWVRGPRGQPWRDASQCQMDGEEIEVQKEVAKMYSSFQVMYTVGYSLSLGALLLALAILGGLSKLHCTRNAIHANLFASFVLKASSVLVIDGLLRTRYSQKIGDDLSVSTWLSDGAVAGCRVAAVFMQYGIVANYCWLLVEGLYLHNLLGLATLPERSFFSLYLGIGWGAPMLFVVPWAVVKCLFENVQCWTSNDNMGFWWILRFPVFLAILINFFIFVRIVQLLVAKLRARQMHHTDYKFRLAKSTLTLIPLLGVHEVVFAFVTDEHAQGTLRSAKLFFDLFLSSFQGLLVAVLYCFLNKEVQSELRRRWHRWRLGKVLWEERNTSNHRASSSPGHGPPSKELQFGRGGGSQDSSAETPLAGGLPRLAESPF

B1: glucagon derivative of SEQ ID NO: 37 (peptide)
peptide: Y[Aib]QGTFTSDYSKYLDERRAKEFVQWLMNTC
modifications: lactam 16-20
In vitro Activity (Relative Activity to SEQ ID NO: 1, %); cAMP assay, from EC50: 776%
